Laboratory results: patent US20140154252A1 (EMERGENT PRODUCT DEVELOPMENT SEATTLE, published 2014)

T1: CD20 (human, UniProt P11836 1-297)
T1 construct: whole, on cells; 2H7 is called murine anti-human CD20; also called CD20 presented on WIL-2S cells; CD20 on Ramos, BJAB, SU-DHL-6 and DoHH2 B cells
T1 sequence (looked up): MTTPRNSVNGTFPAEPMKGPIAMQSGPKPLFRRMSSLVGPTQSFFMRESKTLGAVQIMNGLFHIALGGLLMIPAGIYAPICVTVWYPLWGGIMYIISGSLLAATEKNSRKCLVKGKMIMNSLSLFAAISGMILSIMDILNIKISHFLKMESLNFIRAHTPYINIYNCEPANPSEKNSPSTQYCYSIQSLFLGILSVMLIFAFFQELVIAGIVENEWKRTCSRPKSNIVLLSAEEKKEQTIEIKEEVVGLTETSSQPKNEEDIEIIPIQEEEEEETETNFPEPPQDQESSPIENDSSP


How the values were obtained:
[1] = molecular target: T1, CD20; test: flow cytometry on WIL2S cells (CD20), FITC goat anti-human IgG; no unit printed on the axis (legend: ug/ml)
[2] = molecular target: T2, CD28 presented on CHO cells (UniProt P10747 19-220, limits assumed); test: flow cytometry, lower graph taken as panel B of the legend = CD28 CHO cells; FITC goat anti-human IgG [lower graph]
T2 construct: whole, on cells; also called CD28 CHO; CD28-expressing CHO cells
Procedure: (§1) Seeded plates containing the proteins were incubated on ice for one hour. Subsequently, the wells were washed once with 200 μl 1% FBS in PBS. Goat anti-human antibody labeled with FITC (Fc Sp) at 1:100 was then added to each well, and the plates were again incubated on ice for one hour. The plates were then washed once with 200 μl 1% FBS in PBS and the cells were re-suspended in 200 μl 1% FBS and analyzed by FACS.
(§2) To assess the binding properties of the anti-CD28 peptide 2E12 VHVL, CD28-expressing CHO cells were plated by seeding in individual wells of a culture plate. […] The 2E12IgGvHvL SMIP purified protein was added to individual seeded wells, again using a two-fold dilution scheme, i.e., from 20 μg/ml down to […]. One well received no protein to provide a background control. The plates were then incubated on ice for one hour, washed once with 200 μl 1% FBS in PBS, and goat anti-human antibody labeled with FITC (Fc Sp) at 1:100 was added to each well. The plates were again incubated on ice for one hour and subsequently washed once with 200 μl 1% FBS in PBS. Following re-suspension of the cells in 200 μl 1% FBS, FACS analysis was performed.

[3] = molecular target: T3, CD28mIgG (UniProt P10747 19-152); test: sandwich flow cytometry: fusion protein titrated on WIL-2S cells (held by CD20), then CD28mIgG, then FITC anti-mouse
T3 construct: Bought reagent; the construct is not described; also called CD28Ig (Ancell); CD28 fused to mouse antibody; not shown: mouse Ig part of the bought fusion; not described

[4] = molecular target: T1, CD20; test: flow cytometry, upper graph taken as panel A of the legend = WIL-2S cells (CD20); FITC goat anti-human IgG [upper graph]
Procedure: as §1, §2

| Binder | binding result [1] | EC50 (read off the curve) [2] [µg/mL] | EC50 (read off the curve) [3] [µg/mL] | EC50 (read off the curve) [4] [µg/mL] |
| --- | --- | --- | --- | --- |
| 2H7-sss-hIgG-STD1-G19-4 HL (bispecific antibody, Assembled from modules; also called 2H7sssIgG1-STD1-G19-4 HL; CD20-hIgG-CD3 multispecific molecule (SSS hinge, HL); not shown: human IgG1 CH2-CH3) chain (part 1 of 2): QIVLSQSPAILSASPGEKVTMTCRASSSVSYMHWYQQKPGSSPKPWIYAPSNLASGVPARFSGSGSGTSYSLTISRVEAEDAATYYCQQWSFNPPTFGAGTKLELKDGGGSGGGGSGGGGSSQAYLQQSGAESVRPGASVKMSCKASGYTFTSYNMHWVKQTPRQGLEWIGAIYPGNGDTSYNQKFKGKATLTVDKSSSTAYMQLSSLTSEDSAVYFCARVVYYSNSYWYFDVWGTGTTVTVSEPKSSDKTHTSPPSP chain (part 2 of 2): NYGGGGSGGGGSGGGGSGNSEVQLQQSGPELVKPGASMKISCKASGYSFTGYIVNWLKQSHGKNLEWIGLINPYKGLTTYNQKFKGKATLTVDKSSSTAYMELLSLTSEDSAVYYCARSGYYGDSDWYFDVWGAGTTVTVSSGGGGSGGGGSGGGGSASDIQMTQTTSSLSASLGDRVTISCRASQDIRNYLNWYQQKPDGTVKLLIYYTSRLHSGVPSRFSGSGSGTDYSLTIANLQPEDIATYFCQQGNTLPWTFGGGTKLVTKRS | binds | – | – | – |
| 2H7-sss-hIgG-STD1-G19-4 LH (bispecific antibody, Assembled from modules; also called 2H7sssIgG1-STD1-G19-4 LH; CD20-hIgG-CD3 multispecific molecule (LH); not shown: human IgG1 CH2-CH3) chain (part 1 of 2): QIVLSQSPAILSASPGEKVTMTCRASSSVSYMHWYQQKPGSSPKPWIYAPSNLASGVPARFSGSGSGTSYSLTISRVEAEDAATYYCQQWSFNPPTFGAGTKLELKDGGGSGGGGSGGGGSSQAYLQQSGAESVRPGASVKMSCKASGYTFTSYNMHWVKQTPRQGLEWIGAIYPGNGDTSYNQKFKGKATLTVDKSSSTAYMQLSSLTSEDSAVYFCARVVYYSNSYWYFDVWGTGTTVTVSEPKSSDKTHTSPPSP chain (part 2 of 2): NYGGGGSGGGGSGGGGSGNSDIQMTQTTSSLSASLGDRVTISCRASQDIRNYLNWYQQKPDGTVKLLIYYTSRLHSGVPSRFSGSGSGTDYSLTIANLQPEDIATYFCQQGNTLPWTFGGGTKLVTKRGGGGSGGGGSGGGGSASEVQLQQSGPELVKPGASMKISCKASGYSFTGYIVNWLKQSHGKNLEWIGLINPYKGLTTYNQKFKGKATLTVDKSSSTAYMELLSLTSEDSAVYYCARSGYYGDSDWYFDVWGAGTTVTVSS | binds | – | – | – |
| 2H7-csc-hIgG-STD1-G19-4 HL (bispecific antibody, Assembled from modules; also called CD20-hIgG-CD3 multispecific molecule (CSC hinge, HL); not shown: human IgG1 CH2-CH3) chain (part 1 of 2): QIVLSQSPAILSASPGEKVTMTCRASSSVSYMHWYQQKPGSSPKPWIYAPSNLASGVPARFSGSGSGTSYSLTISRVEAEDAATYYCQQWSFNPPTFGAGTKLELKDGGGSGGGGSGGGGSSQAYLQQSGAESVRPGASVKMSCKASGYTFTSYNMHWVKQTPRQGLEWIGAIYPGNGDTSYNQKFKGKATLTVDKSSSTAYMQLSSLTSEDSAVYFCARVVYYSNSYWYFDVWGTGTTVTVSEPKSCDKTHTSPPCP chain (part 2 of 2): NYGGGGSGGGGSGGGGSGNSEVQLQQSGPELVKPGASMKISCKASGYSFTGYIVNWLKQSHGKNLEWIGLINPYKGLTTYNQKFKGKATLTVDKSSSTAYMELLSLTSEDSAVYYCARSGYYGDSDWYFDVWGAGTTVTVSSGGGGSGGGGSGGGGSASDIQMTQTTSSLSASLGDRVTISCRASQDIRNYLNWYQQKPDGTVKLLIYYTSRLHSGVPSRFSGSGSGTDYSLTIANLQPEDIATYFCQQGNTLPWTFGGGTKLVTKRS | binds | – | – | – |
| 2H7-sss-hIgG P238S/P331S-H6-2e12 VHVL (bispecific antibody, Assembled from modules as m11; The preparation held a share of cleaved, SMIP-sized molecules; also called 2H7-sss-hIgG-H6-2e12) QIVLSQSPAILSASPGEKVTMTCRASSSVSYMHWYQQKPGSSPKPWIYAPSNLASGVPARFSGSGSGTSYSLTISRVEAEDAATYYCQQWSFNPPTFGAGTKLELKDGGGSGGGGSGGGGSSQAYLQQSGAESVRPGASVKMSCKASGYTFTSYNMHWVKQTPRQGLEWIGAIYPGNGDTSYNQKFKGKATLTVDKSSSTAYMQLSSLTSEDSAVYFCARVVYYSNSYWYFDVWGTGTTVTVSEPKSSDKTHTSPPSPAPELLGGSSVFLFPPKPKDTLMISRTPEVTCVVVDVSHEDPEVKFNWYVDGVEVHNAKTKPREEQYNSTYRVVSVLTVLHQDWLNGKEYKCKVSNKALPASIEKTISKAKGQPREPQVYTLPPSRDELTKNQVSLTCLVKGFYPSDIAVEWESNGQPENNYKTTPPVLDSDGSFFLYSKLTVDKSRWQQGNVFSCSVMHEALHNHYTQKSLSLSPGKGGGGSGGGGSGGGGSGNSQVQLKESGPGLVAPSQSLSITCTVSGFSLTGYGVNWVRQPPGKGLEWLGMIWGDGSTDYNSALKSRLSITKDNSKSQVFLKMNSLQTDDTARYYCARDGYSNFHYYVMDYWGQGTSVTVSSGGGGSGGGGSGGGGSGGGGSDIVLTQSPASLAVSLGQRATISCRASESVEYYVTSLMQWYQQKPGQPPKLLISAASNVESGVPARFSGSGSGTDFSLNIHPVEEDDIAMYFCQQSRKVPWTFGGGTKLEIKR | – | ~0.8 | ~0.3 | ~1 |
| 2H7-sss-hIgG-H7-2e12 HL (bispecific antibody, Assembled from modules as m11; also called 2H7-sss-IgG-H7-2e12-HL) QIVLSQSPAILSASPGEKVTMTCRASSSVSYMHWYQQKPGSSPKPWIYAPSNLASGVPARFSGSGSGTSYSLTISRVEAEDAATYYCQQWSFNPPTFGAGTKLELKDGGGSGGGGSGGGGSSQAYLQQSGAESVRPGASVKMSCKASGYTFTSYNMHWVKQTPRQGLEWIGAIYPGNGDTSYNQKFKGKATLTVDKSSSTAYMQLSSLTSEDSAVYFCARVVYYSNSYWYFDVWGTGTTVTVSEPKSSDKTHTSPPSPAPELLGGSSVFLFPPKPKDTLMISRTPEVTCVVVDVSHEDPEVKFNWYVDGVEVHNAKTKPREEQYNSTYRVVSVLTVLHQDWLNGKEYKCKVSNKALPASIEKTISKAKGQPREPQVYTLPPSRDELTKNQVSLTCLVKGFYPSDIAVEWESNGQPENNYKTTPPVLDSDGSFFLYSKLTVDKSRWQQGNVFSCSVMHEALHNHYTQKSLSLSPGKGCPPCPNSQVQLKESGPGLVAPSQSLSITCTVSGFSLTGYGVNWVRQPPGKGLEWLGMIWGDGSTDYNSALKSRLSITKDNSKSQVFLKMNSLQTDDTARYYCARDGYSNFHYYVMDYWGQGTSVTVSSGGGGSGGGGSGGGGSGGGGSDIVLTQSPASLAVSLGQRATISCRASESVEYYVTSLMQWYQQKPGQPPKLLISAASNVESGVPARFSGSGSGTDFSLNIHPVEEDDIAMYFCQQSRKVPWTFGGGTKLEIKR | – | ~0.5 | ~0.3 | ~1 |
| 2H7-sss-hIgG P238S/P331S-H3-2e12 VHVL (bispecific antibody, Assembled from modules as m11; also called 2H7-sss-hIgG-H3-2e12 HL) QIVLSQSPAILSASPGEKVTMTCRASSSVSYMHWYQQKPGSSPKPWIYAPSNLASGVPARFSGSGSGTSYSLTISRVEAEDAATYYCQQWSFNPPTFGAGTKLELKDGGGSGGGGSGGGGSSQAYLQQSGAESVRPGASVKMSCKASGYTFTSYNMHWVKQTPRQGLEWIGAIYPGNGDTSYNQKFKGKATLTVDKSSSTAYMQLSSLTSEDSAVYFCARVVYYSNSYWYFDVWGTGTTVTVSEPKSSDKTHTSPPSPAPELLGGSSVFLFPPKPKDTLMISRTPEVTCVVVDVSHEDPEVKFNWYVDGVEVHNAKTKPREEQYNSTYRVVSVLTVLHQDWLNGKEYKCKVSNKALPASIEKTISKAKGQPREPQVYTLPPSRDELTKNQVSLTCLVKGFYPSDIAVEWESNGQPENNYKTTPPVLDSDGSFFLYSKLTVDKSRWQQGNVFSCSVMHEALHNHYTQKSLSLSPGKNYGGGGSGNSQVQLKESGPGLVAPSQSLSITCTVSGFSLTGYGVNWVRQPPGKGLEWLGMIWGDGSTDYNSALKSRLSITKDNSKSQVFLKMNSLQTDDTARYYCARDGYSNFHYYVMDYWGQGTSVTVSSGGGGSGGGGSGGGGSGGGGSDIVLTQSPASLAVSLGQRATISCRASESVEYYVTSLMQWYQQKPGQPPKLLISAASNVESGVPARFSGSGSGTDFSLNIHPVEEDDIAMYFCQQSRKVPWTFGGGTKLEIKR | – | ~0.8 | ~0.4 | ~1 |
